The source of these data is US20220281969A1 (ANTLERA THERAPEUTICS, published 2022).

One may read the IC50 as the concentration that inhibits the measured activity by half.

For test [1], the target named is T1, recombinant mouse LRP5-His chimera (mouse, UniProt Q91VN0 31-1383).
T1 construct: extracellular domain; not shown: His tag
T1 sequence (looked up): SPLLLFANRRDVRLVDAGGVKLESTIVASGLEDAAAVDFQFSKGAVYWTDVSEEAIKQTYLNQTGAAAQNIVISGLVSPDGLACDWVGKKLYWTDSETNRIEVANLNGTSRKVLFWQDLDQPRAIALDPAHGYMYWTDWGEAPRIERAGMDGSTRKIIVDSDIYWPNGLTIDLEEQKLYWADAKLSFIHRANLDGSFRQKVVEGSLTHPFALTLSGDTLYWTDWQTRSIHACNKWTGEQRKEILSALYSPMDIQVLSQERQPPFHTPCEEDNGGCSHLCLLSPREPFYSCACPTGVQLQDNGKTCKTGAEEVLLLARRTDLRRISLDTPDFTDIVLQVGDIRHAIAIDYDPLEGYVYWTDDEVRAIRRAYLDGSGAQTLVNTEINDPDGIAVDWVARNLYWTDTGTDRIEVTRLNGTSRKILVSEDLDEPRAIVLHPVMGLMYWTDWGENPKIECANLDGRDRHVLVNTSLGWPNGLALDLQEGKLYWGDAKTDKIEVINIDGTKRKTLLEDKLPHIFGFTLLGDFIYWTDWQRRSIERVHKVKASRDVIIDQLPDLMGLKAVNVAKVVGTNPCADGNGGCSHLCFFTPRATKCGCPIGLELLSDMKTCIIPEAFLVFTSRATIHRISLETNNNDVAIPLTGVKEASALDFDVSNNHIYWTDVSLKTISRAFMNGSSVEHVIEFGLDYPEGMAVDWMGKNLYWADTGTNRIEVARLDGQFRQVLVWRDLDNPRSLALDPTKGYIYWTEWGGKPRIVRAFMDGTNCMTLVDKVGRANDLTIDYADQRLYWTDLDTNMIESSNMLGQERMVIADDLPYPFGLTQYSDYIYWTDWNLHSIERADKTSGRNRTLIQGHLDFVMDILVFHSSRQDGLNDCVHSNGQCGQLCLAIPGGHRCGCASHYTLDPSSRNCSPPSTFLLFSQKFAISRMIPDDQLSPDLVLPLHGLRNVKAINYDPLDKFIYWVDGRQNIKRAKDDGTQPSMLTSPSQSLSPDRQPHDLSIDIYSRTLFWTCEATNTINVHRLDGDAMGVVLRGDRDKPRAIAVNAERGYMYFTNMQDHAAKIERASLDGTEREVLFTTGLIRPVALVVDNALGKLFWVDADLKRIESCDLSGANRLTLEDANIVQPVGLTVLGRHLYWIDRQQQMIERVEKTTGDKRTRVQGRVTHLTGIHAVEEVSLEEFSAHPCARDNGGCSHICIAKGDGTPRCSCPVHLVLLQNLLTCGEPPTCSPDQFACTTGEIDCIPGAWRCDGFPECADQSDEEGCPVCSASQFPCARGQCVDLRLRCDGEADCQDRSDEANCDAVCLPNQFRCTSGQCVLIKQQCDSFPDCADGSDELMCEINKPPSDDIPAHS
Put plainly: single-point ELISA, IgG1 on coated antigen. On the procedure:
FIGS. 1a and 1b show LRP six antibodies. (A) The amino acid sequences of the complementarity determining regions (CDR) of the heavy (H) and the light (L) chains are presented. The antibodies were grouped into unique epitopes as determined by competitive ELISAs. (B) Single-point ELISAs were performed on 96-well Maxisorb immune plates coated with the […] of mouse LRP5, mouse LRP6 and human LRP6 chimeras. The plates were incubated with the purified Fab or IgG1 at the concentrations indicated followed by incubation with horseradish peroxidase (HRP)-conjugated anti-kappa antibody. The wells were washed eight times followed by incubation with 3,3′,5,5′-tetramethylbenzidine/H₂O₂ peroxidase (TMB) substrate for 5-10 min. The reaction was stopped by adding one M H₃PO₄ and the absorbance was measured spectrometrically at 450 nm in a microtiter plate reader.
(§1) The full length IgG1s were purified and a single-point ELISA was done to determine the specificity of the antibodies. […] A multipoint competitive ELISA was used to determine the relative affinities of the antibodies to the recombinant antigen.
In general terms: In an ELISA, binding on a coated surface is turned into a signal by an enzyme label.

The target of test [2] is T2, recombinant human LRP6-Fc chimera (human, UniProt O75581 20-1370).
T2 construct: extracellular domain; also called human LRP6 chimera; not shown: Fc part of the chimera
T2 sequence (looked up): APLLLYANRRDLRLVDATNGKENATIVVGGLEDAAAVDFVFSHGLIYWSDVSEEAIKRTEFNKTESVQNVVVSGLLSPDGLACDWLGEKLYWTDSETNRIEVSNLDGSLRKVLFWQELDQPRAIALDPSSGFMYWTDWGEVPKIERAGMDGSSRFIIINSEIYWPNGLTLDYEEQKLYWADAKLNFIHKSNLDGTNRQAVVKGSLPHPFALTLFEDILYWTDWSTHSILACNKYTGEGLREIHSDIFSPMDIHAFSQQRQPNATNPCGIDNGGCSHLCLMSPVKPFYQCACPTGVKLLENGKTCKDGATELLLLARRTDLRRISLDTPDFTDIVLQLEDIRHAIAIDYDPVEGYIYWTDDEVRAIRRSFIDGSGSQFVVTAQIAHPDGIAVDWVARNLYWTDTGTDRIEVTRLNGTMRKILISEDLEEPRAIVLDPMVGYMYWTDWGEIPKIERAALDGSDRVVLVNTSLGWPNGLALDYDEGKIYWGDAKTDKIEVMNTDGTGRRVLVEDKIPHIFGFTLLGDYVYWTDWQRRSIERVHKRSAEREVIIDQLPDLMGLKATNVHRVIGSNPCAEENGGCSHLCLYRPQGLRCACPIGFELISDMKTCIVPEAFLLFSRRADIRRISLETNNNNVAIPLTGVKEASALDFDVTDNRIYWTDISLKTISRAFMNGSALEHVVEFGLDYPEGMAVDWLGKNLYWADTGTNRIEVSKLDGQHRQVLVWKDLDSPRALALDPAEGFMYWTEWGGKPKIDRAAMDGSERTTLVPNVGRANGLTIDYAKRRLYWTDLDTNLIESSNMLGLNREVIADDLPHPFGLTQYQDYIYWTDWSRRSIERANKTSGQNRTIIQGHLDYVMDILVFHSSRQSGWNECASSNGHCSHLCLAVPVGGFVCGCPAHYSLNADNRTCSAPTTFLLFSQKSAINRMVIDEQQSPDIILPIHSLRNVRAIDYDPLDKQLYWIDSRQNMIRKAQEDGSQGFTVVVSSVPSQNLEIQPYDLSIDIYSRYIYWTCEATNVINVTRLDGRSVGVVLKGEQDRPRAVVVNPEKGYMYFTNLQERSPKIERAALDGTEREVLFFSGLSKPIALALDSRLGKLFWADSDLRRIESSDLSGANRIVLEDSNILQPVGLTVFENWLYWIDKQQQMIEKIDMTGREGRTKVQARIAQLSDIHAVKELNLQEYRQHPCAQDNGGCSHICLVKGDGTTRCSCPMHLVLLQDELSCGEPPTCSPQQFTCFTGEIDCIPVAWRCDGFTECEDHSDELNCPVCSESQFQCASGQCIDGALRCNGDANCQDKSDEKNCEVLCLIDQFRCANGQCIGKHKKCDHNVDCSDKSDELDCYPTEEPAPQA
Put plainly: multipoint competitive ELISA; human LRP6-Fc chimera titrated against OD450 of the IgG1; non-linear regression. On the procedure: as §1
Table 3 reports the IC50 of LRP6 antibodies as determined by competitive ELISA. The log of the recombinant human LRP6-Fc chimera concentration (x-axis) was plotted against the OD450 reading of the antibody (y-axis). The IC50 was determined by non-linear regression analysis.

Test [3] concerns the target full-length LRP6 receptor expressed on the surface of cell lines (UniProt O75581 20-1613, limits assumed). Put plainly: cell-based or functional assay.

Where a chain is given by its changes, count along the chain named.

B1: LRP6-G3 IgG1 antibody (antibody, V domains shown)
VH: EVQLVESGGGLVQPGGSLRLSCAASGFNISSYYIHWVRQAPGKGLEWVASIYSSYGYTSYADSVKGRFTISADTSKNTAYLQMNSLRAEDTAVYYCARTVRGSKKPYFSGWAMDYWGQGTLVTVSS
VL: DIQMTQSPSSLSASVGDRVTITCRASQSVSSAVAWYQQKPGKAPKLLIYSASSLYSGVPSRFSGSRSGTDFTLTISSLQPEDFATYYCQQYYWPITFGQGTKVEIKR
notes: Tested as purified full length IgG1
As to B1, the binding result in test [1] is reported as “no binding”. Also, in test [2], the IC50 came to 10.2 nM.

B2: LRP6-A1 IgG1 antibody (antibody, V domains shown)
VH: B1 VH with I29L, S31Y
VL: B1 VL
notes: Tested as purified full length IgG1; Synthetic antibody on a human framework, detected with anti-kappa antibody
Take B2: in test [1], the binding result is listed as “no binding”. Besides, the IC50 in test [2] was 9.58 nM.

B3: LRP6-G9 IgG1 antibody (antibody, V domains shown)
VH: B1 VH with S30Y, G56S
VL: B1 VL
notes: as for B1
As to B3, the binding result in test [1] is given as “no binding”. Further, the IC50 in test [2] is 6.03 nM.

B4: LRP6-A10 IgG1 antibody (antibody, V domains shown)
VH: EVQLVESGGGLVQPGGSLRLSCAASGFNISYSSIHWVRQAPGKGLEWVAYISSYYGYTYYADSVKGRFTISADTSKNTAYLQMNSLRAEDTAVYYCARAHYFPWAGAMDYWGQGTLVTVSS
VL: DIQMTQSPSSLSASVGDRVTITCRASQSVSSAVAWYQQKPGKAPKLLIYSASSLYSGVPSRFSGSRSGTDFTLTISSLQPEDFATYYCQQYSWGPFTFGQGTKVEIKR
notes: as for B1
For the molecule B4, the “functional IC50, Wnt3aCM-stimulated TOPflash reporter activity (MDAMB231, U2OS, H23 cells)” value in test [3] is below 0.3 nM. Also, the binding result in test [1] was “no binding”. Further, the IC50 in test [2] is 6.29 nM.

B5: LRP6-B6 IgG1 antibody (antibody, V domains shown)
VH: B4 VH with Y50S, S53P, A99S, H100S, A105F, G106S
VL: B1 VL with W93F, P94L
notes: as for B1
B5: the binding result in test [1] was “no binding”.

B6: LRP6-A10 Fab protein (Fab, V domains shown)
VH: B4 VH
VL: B4 VL
With B6, the “functional IC50, Wnt3aCM-stimulated TOPflash reporter activity (MDAMB231 cells)” value in test [3] was below 0.3 nM.
